Biological target: T1, biotinylated CD59 (Homo sapiens, UniProt P13987)
T1 construct: Recombinant soluble human CD59 with an additional C-terminal cysteine residue
T1 sequence (P13987 26-102 limits assumed): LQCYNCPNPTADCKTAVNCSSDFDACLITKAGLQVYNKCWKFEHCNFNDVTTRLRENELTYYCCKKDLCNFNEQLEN
Assay: mRNA-display cyclic peptide screen against CD59-biotin, NGS abundance after 6th selection round
Conditions: for Counts (raw counts for peptide sequence), Seq I: NGS sample Seq I; for Counts (raw counts for peptide sequence), Seq I / Counts (raw counts for peptide sequence), Seq II / Counts Seq I / Counts Seq II: sheet R6 (6th selection round); for Counts (raw counts for peptide sequence), Seq II: NGS sample Seq II; for Percentage of the pool, averaged across the two sequencing samples: average of Seq I and Seq II; for Percentage of the pool, averaged across the two sequencing samples / Percentage of the pool, Seq I / Percentage of the pool, Seq II / Percentage Seq I / Percentage Seq II / Percentage Average: sheet R6; for Percentage of the pool, Seq I: counts normalised by total counts of NGS sample Seq I; for Percentage of the pool, Seq II: counts normalised by total counts of NGS sample Seq II; for Percentage Seq I: counts normalised by total counts of sample Seq I; for Percentage Seq I / Percentage Seq II: percentage of the pool; for Percentage Seq II: counts normalised by total counts of sample Seq II; for Percentage Average: percentage of the pool averaged across the two sequencing samples; for Counts Seq I / Counts Seq II: raw NGS counts of peptide sequence; for Counts Seq I: sequencing sample Seq I; for Counts Seq II: sequencing sample Seq II
Source text: To discover novel non‐protein CD59 ligands, we screened a library of 10^12 cyclic peptides against CD59 using mRNA‐display (Figure 2a).^[ [23], [24], [25], [26], [27], [28], [29] ^] Briefly, an mRNA library was designed in which the start codon was reprogrammed from Met to N‐chloroacetyl‐D‐Tyr (ClAc‐D‐Tyr), followed by 10–12 randomly encoded natural amino acids, a Cys residue, a (GlySer)3 linker, and a stop codon. […] The total library diversity was 1.51 × 10^13 molecules, comprising 5.02 × 10^12 molecules of each macrocycle size, covering a subset of the maximum theoretical diversity of this library design. Following in vitro translation, ClAc‐D‐Tyr spontaneously reacts with either the C‐terminal Cys or a Cys in the random region, yielding macrocyclic thioether peptides. Hits from the library were identified through iterative enrichment and amplification against biotinylated CD59, then immobilized on streptavidin beads. Fifteen hit sequences (CP‐01 to CP‐15), enriched with abundance >1% relative to the total pool of recovered binders after the 6th round of selection, were synthesized by solid phase peptide synthesis (SPPS), without the (Gly‐Ser)3 linker.
Figure 2 Discovery of macrocyclic peptide ligands with nanomolar CD59 affinity using mRNA display. a) The selection process. PCR = polymerase chain reaction, SPPS = solid phase peptide synthesis. b) Table showing details of the peptides with nanomolar affinity for CD59 as well as the binding affinity of the lead inhibitor of CD59, rILYd4. K D values are presented as the average of three technical replicates ± SEM. Structures of all peptides and SPR sensograms are presented in Figures S1 and S2. *indicates the presented sequences are the variable regions of these cyclic peptides; each is flanked by an N‐terminal Ac‐D‐Tyr cyclized to a C‐terminal Cys. R6 abundance (%) is defined as (the given number of NGS reads for a given sequence/the total number of reads of unique sequences observed in NGS)*100 following the 6th selection round. c) Representative sensogram of the interaction between CP‐06 with immobilized CD59 by SPR analysis. Inset showing the equilibrium binding curve of CP‐06 to CD‐59. Below in the box are the association and dissociation rate constants of CP‐06. Concentrations are plotted in descending order from 800‐3.1 nM in line with their position on the legend. […] (nM)'; the box with Kon/Koff has no label of its own / ILYd4: the label may be cut off at the left edge (possibly 'rILYd4') / CP-02, KD: 15.3 ± 0.2, small print, 3 or 8 uncertain / CP-03, KD: 23.4 ± 0.7, small print / CP-06, KD: 11.3 ± 0.0, small print, 3 or 8 uncertain / CP-13, KD: 10.8 ± 0.7, small print, 8 or 6 uncertain / ILYd4, KD: 48.3 ± 1.1, small print, 8 and 3 uncertain
The mRNA-display cyclic peptide screen was performed against CD59-biotin by T.E.M: DNA templates for transcription were generated by PCR in a similar manner to that previously described.^2 RNA oligonucleotides were transcribed from the DNA templates using T7 RNA polymerase and purified by phenol/chloroform extraction followed by ethanol precipitation. Oligonucleotide concentrations were determined spectroscopically by absorbance at 260 nm. In the first selection round a 1:1:1 molar ratio of NNK10/NNK11/NNK12 was used. The procedure for selection rounds 2-6 is described below; round 1 was conducted at twice the scale.
RNA encoding for the peptide library ligated to a puromycin-modified oligonucleotide was […] (final [RNA] = 2.5 µM) using a customised PURE express kit (lacking release factor 1 and methionine, supplemented with […] initiator tRNA acylated with N-chloroacetyl-d-tyrosine prepared as previously described)^3 in a final volume of 5.6 µL for 1 hour at 37 °C.
This mixture was incubated at 42 °C for 1 hour before being diluted to 500 µL with PBS (10 mM Na-PO4 pH 7.4, 2.7 mM KCl, 137 mM NaCl) and 0.5 µL taken for subsequent use in qPCR. […]

Row | Sequence | Counts (raw counts for peptide sequence), Seq I | Counts (raw counts for peptide sequence), Seq II | Percentage of the pool, averaged across the two sequencing samples [%] | Percentage of the pool, Seq I [%] | Percentage of the pool, Seq II [%] | Percentage Seq I [%] | Percentage Seq II [%] | Percentage Average [%] | Counts Seq I | Counts Seq II
1 | CFSARAVLDGGW | 59 | 3 | 0.010 | 0.013 | 0.007 | – | – | – | – | –
2 | CFSARTDSSGT | – | – | – | – | – | 0.053 | 0.039 | 0.046 | 231 | 17
3 | CFSHRNPTDSI | 32 | 6 | 0.011 | 0.007 | 0.014 | – | – | – | – | –
4 | CFSHRPGPSI | – | – | – | – | – | 0.147 | 0.132 | 0.140 | 642 | 57
5 | CFSHRRLEYGV | – | – | – | – | – | 0.045 | 0.046 | 0.046 | 197 | 20
6 | CFSHRSNSDGI | – | – | – | – | – | 0.092 | 0.081 | 0.087 | 404 | 35
7 | CFSKRIAPGAQ | – | – | – | – | – | 0.020 | 0.019 | 0.019 | 88 | 8
8 | CFSNRISGPAV | – | – | – | – | – | 0.197 | 0.214 | 0.205 | 864 | 92
9 | CFSPRVTEHST | 62 | 8 | 0.016 | 0.014 | 0.019 | – | – | – | – | –
10 | CFSQRLDRTSS | – | – | – | – | – | 0.027 | 0.026 | 0.026 | 116 | 11
11 | CFSRRLAAGAI | 35 | 5 | 0.010 | 0.008 | 0.012 | – | – | – | – | –
12 | CFSRRLTAGAI | – | – | – | – | – | 2.075 | 2.091 | 2.083 | 9078 | 901
13 | CFSRRLTAGAS | – | – | – | – | – | 0.024 | 0.028 | 0.026 | 106 | 12
14 | CFSRRLTAGAT | – | – | – | – | – | 0.045 | 0.035 | 0.040 | 195 | 15
15 | CFSRRLTAGAV | – | – | – | – | – | 0.031 | 0.030 | 0.030 | 134 | 13
16 | CFSRRLTEGAI | 41 | 5 | 0.010 | 0.009 | 0.012 | – | – | – | – | –
17 | CFSRRLTVGAI | 40 | 6 | 0.012 | 0.009 | 0.014 | – | – | – | – | –

Row | Sequence | Counts (raw counts for peptide sequence), Seq I | Counts (raw counts for peptide sequence), Seq II | Percentage of the pool, averaged across the two sequencing samples [%] | Percentage of the pool, Seq I [%] | Percentage of the pool, Seq II [%] | Percentage Seq I [%] | Percentage Seq II [%] | Percentage Average [%] | Counts Seq I | Counts Seq II
18 | CFSRRSTSSQST | – | – | – | – | – | 0.018 | 0.019 | 0.018 | 77 | 8
19 | CFSRRTSVPNTT | – | – | – | – | – | 0.209 | 0.190 | 0.200 | 914 | 82
20 | CFSRRVTYPHQV | 31 | 8 | 0.013 | 0.007 | 0.019 | – | – | – | – | –
21 | CFSSRTGTTSV | 39 | 10 | 0.016 | 0.009 | 0.023 | – | – | – | – | –
22 | CFSSRTSLISGV | 27 | 6 | 0.010 | 0.006 | 0.014 | – | – | – | – | –
23 | CFSSRVQSGDT | – | – | – | – | – | 0.214 | 0.190 | 0.202 | 936 | 82
24 | CFSTRLSRSYGT | – | – | – | – | – | 0.016 | 0.026 | 0.021 | 68 | 11
25 | CFSWRLGPAEK | – | – | – | – | – | 0.020 | 0.028 | 0.024 | 87 | 12
26 | CFSYRIRSAYDL | – | – | – | – | – | 0.028 | 0.030 | 0.029 | 124 | 13
27 | CFTGRLSLDSI | – | – | – | – | – | 0.031 | 0.039 | 0.035 | 134 | 17
28 | CFTGRLTIDAV | 26 | 6 | 0.010 | 0.006 | 0.014 | – | – | – | – | –
29 | CFTHRLTDFGT | – | – | – | – | – | 0.053 | 0.070 | 0.061 | 230 | 30
30 | CFTLRLSQTSV | – | – | – | – | – | 0.156 | 0.160 | 0.158 | 682 | 69
31 | CFTLRVLDVSAV | 100 | 5 | 0.017 | 0.023 | 0.012 | – | – | – | – | –
32 | CFTNRLDNSST | – | – | – | – | – | 0.072 | 0.067 | 0.070 | 314 | 29
33 | CFTQRIASGSK | – | – | – | – | – | 0.024 | 0.021 | 0.022 | 105 | 9
34 | CFTYRLSDEPSA | – | – | – | – | – | 0.039 | 0.016 | 0.027 | 169 | 7

Source: publication PMC12207370, “Macrocyclic Peptide Probes for Immunomodulatory Protein CD59: Potent Modulators of Bacterial Toxin Activity and Antibody‐Dependent Cytotoxicity” (Angewandte Chemie (International Ed. in English), 2025)
